These results are taken from US20100003258A1.

What all share (assay): cell-based or functional assay
Assay [1] has as its target human FGFR3 IIIc on FDCP-1 cells (FDCP-FGFR3 IIIc #109) (human), P22607.
The target in assay [2] is FDCP-FGFR3 IIIb and FDCP-FGFR3 IIIc cell lines.
In assay [3] the target is human FGFR3 IIIb on FDCP-1 cells (FDCP-FGFR3 IIIb #122) (human), P22607.
Assay [4] has as its target human FGFR3 IIIc G380R on FDCP-1 cells (FGFR3 IIIc G380R #1) (human), P22607.

Sequence of human FGFR3 IIIc G380R on FDCP-1 cells (FGFR3 IIIc G380R #1) (human), P22607 (P22607 23-806 G380R): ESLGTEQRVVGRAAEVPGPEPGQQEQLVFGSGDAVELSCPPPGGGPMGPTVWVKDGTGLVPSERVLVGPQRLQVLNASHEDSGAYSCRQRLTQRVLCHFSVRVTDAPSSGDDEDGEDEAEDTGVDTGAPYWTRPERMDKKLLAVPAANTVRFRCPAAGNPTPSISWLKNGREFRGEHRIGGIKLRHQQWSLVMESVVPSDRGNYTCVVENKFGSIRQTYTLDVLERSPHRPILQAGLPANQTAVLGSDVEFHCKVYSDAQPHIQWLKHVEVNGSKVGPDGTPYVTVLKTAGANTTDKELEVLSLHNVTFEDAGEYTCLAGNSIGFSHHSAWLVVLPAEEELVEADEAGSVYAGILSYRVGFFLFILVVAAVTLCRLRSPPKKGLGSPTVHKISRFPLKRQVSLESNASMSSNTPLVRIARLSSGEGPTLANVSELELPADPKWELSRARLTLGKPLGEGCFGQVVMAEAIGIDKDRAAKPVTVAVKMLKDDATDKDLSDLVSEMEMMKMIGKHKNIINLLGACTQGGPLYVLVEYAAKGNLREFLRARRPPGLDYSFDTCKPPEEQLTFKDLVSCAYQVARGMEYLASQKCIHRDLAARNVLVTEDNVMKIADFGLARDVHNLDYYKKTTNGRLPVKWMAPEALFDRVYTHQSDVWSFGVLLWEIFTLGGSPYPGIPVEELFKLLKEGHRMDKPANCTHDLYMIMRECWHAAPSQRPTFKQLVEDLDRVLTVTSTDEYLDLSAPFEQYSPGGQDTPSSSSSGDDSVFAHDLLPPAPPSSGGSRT
Sequence of human FGFR3 IIIb on FDCP-1 cells (FDCP-FGFR3 IIIb #122) (human), P22607 (P22607 23-806): as the sequence (P22607 23-806 G380R) above, with R358G counted along it
Sequence of human FGFR3 IIIc on FDCP-1 cells (FDCP-FGFR3 IIIc #109) (human), P22607 (P22607 23-806): as the sequence (P22607 23-806 G380R) above, with R358G counted along it

B1: anti-FGFR3 monoclonal antibody 20B4 (antibody, mouse IgG1, kappa)
heavy: EIQLQQSGPELVKPGASVKVSCKASGYSLTDYNMYWVKQSHGKSLEWIGYIDPYNGGTSYNQKFKGKATLTVDKSSSTAFMHLNSLTSEDSAVYYCARSLGPDFDYWGQGTTLTVSSAKTTPPSVYPLAPGSAAQTNSMVTLGCLVKGYFPEPVTVTWNSGSLSSGVHTFPAVLQSDLYTLSSSVTVPSSTWPSETVTCNVAHPASSTKVDKKIVPRDCGCKPCICTVPEVSSVFIFPPKPKDVLTITLTPKVTCVVVDISKDDPEVQFSWFVDDVEVHTAQTQPREEQFNSTFRSVSELPIMHQDWLNGKEFKCRVNSAAFPAPIEKTISKTKGRPKAPQVYTIPPPKEQMAKDKVSLTCMITDFFPEDITVEWQWNGQPAENYKNTQPIMDTDGSYFVYSKLNVQKSNWEAGNTFTCSVLHEGLHNHHTEKSLSHSPGK
light: QIVLTQSPAIMSASPGEKVTMTCSASSSVNYMHWYQQKSGTSPKRWIYDTSKLASGVPARFSGSGSGTSYSLTISSMEAEDTATYYCQQWNSNPLTFGAGTKLELKRADAAPTVSIFPPSSEQLTSGGASVVCFLNNFYPKDINVKWKIDGSERQNGVLNSWTDQDSKDSTYSMSSTLTLTKDEYERHNSYTCEATHKTSTSPIVKSFNRNEC
Regarding B1, the FDCP Proliferation IC50, FGFR3 IIIc in assay [1] turned out to be 102 nM. For the same molecule, in assay [2], the maximal inhibition of FGF1 induced proliferation of FDCP-FGFR3 cell lines is 40%. The FDCP Proliferation IC50, FGFR3 IIIb in assay [3] came out at 1.51 nM.

B2: anti-FGFR3 monoclonal antibody 15D8 (antibody, mouse IgG1, kappa)
heavy: EIQLQQSGPELVKPGASVKVSCKASGYAFTSYNMYWVKQSHGKSLEWIGYIDPYNGGTSYNQKFKGKATLTVDKSSSTAYMHLNSLTSEDSAVYYCAREGGNYEAWFAYWGQGTLVTVSAAKTTPPSVYPLAPGSAAQTNSMVTLGCLVKGYFPEPVTVTWNSGSLSSGVHTFPAVLQSDLYTLSSSVTVPSSTWPSETVTCNVAHPASSTKVDKKIVPRDCGCKPCICTVPEVSSVFIFPPKPKDVLTITLTPKVTCVVVDISKDDPEVQFSWFVDDVEVHTAQTQPREEQFNSTFRSVSELPIMHQDWLNGKEFKCRVNSAAFPAPIEKTISKTKGRPKAPQVYTIPPPKEQMAKDKVSLTCMITDFFPEDITVEWQWNGQPAENYKNTQPIMDTDGSYFVYSKLNVQKSNWEAGNTFTCSVLHEGLHNHHTEKSLSHSPGK
light: QIVLTQSPALMSASPGEKVTMTCSASSSVSYMYWYQQKPRSSPKPWIYLTSYLASGVPARFSGSGSGTSYSLTISSMEAEDAATYYCQQWSSYPLTFGAGTKLELKRADAAPTVSIFPPSSEQLTSGGASVVCFLNNFYPKDINVKWKIDGSERQNGVLNSWTDQDSKDSTYSMSSTLTLTKDEYERHNSYTCEATHKTSTSPIVKSFNRNEC
The molecule B2 registered an FDCP Proliferation IC50, FGFR3 IIIc in assay [1] of 0.28 nM. Also, the FDCP Proliferation IC50, FGFR3 IIIc G380R in assay [4] was 3.1 nM. Further, the FDCP Proliferation IC50, FGFR3 IIIb in assay [3] is 0.14 nM.

B3: anti-FGFR3 monoclonal antibody 4E7 (antibody, mouse IgG1, kappa)
heavy: EIQLQQSGPELVKPGASVKVSCKASGYAFTSYNMYWVKQSHGKSLEWIGYIDPYNGGTRYNQKFKGKATLTVDKSSSTAYMHLNSLTSEDSAVYYCAREGGNYEAWFAYWGQGTLVTVSAAKTTPPSVYPLAPGSAAQTNSMVTLGCLVKGYFPEPVTVTWNSGSLSSGVHTFPAVLQSDLYTLSSSVTVPSSTWPSETVTCNVAHPASSTKVDKKIVPRDCGCKPCICTVPEVSSVFIFPPKPKDVLTITLTPKVTCVVVDISKDDPEVQFSWFVDDVEVHTAQTQPREEQFNSTFRSVSELPIMHQDWLNGKEFKCRVNSAAFPAPIEKTISKTKGRPKAPQVYTIPPPKEQMAKDKVSLTCMITDFFPEDITVEWQWNGQPAENYKNTQPIMDTDGSYFVYSKLNVQKSNWEAGNTFTCSVLHEGLHNHHTEKSLSHSPGK
light: QIVLTQSPALMSASPGEKVTMTCSASSSVSYMYWYQQKPRSSPKPWIYLTSNLASGVPARFSGSGSGTSYSLTISSMEAEDAATYYCQQWSSNPLTFGAGTKLELKRADAAPTVSIFPPSSEQLTSGGASVVCFLNNFYPKDINVKWKIDGSERQNGVLNSWTDQDSKDSTYSMSSTLTLTKDEYERHNSYTCEATHKTSTSPIVKSFNRNEC
In turn, B3 came in with an FDCP Proliferation IC50, FGFR3 IIIc in assay [1] of 0.62 nM. The FDCP Proliferation IC50, FGFR3 IIIc G380R in assay [4] worked out at 3.5 nM. Besides, in assay [3], the FDCP Proliferation IC50, FGFR3 IIIb came out at 0.9 nM.

B4: anti-FGFR3 monoclonal antibody 2G4 (antibody, mouse IgG1, kappa)
heavy: EIQLQQSGPELVKPGASVKVSCKASGYAFTSYNMYWVKQSHGKSLEWIGYIDPYNGGTRDNQKFKGKATLTVDKSSSTAYMHLNSLTSEDSAVYYCAREGGNYEAWFAYWGQGTLVTVSAAKTTPPSVYPLAPGSAAQTNSMVTLGCLVKGYFPEPVTVTWNSGSLSSGVHTFPAVLQSDLYTLSSSVTVPSSTWPSETVTCNVAHPASSTKVDKKIVPRDCGCKPCICTVPEVSSVFIFPPKPKDVLTITLTPKVTCVVVDISKDDPEVQFSWFVDDVEVHTAQTQPREEQFNSTFRSVSELPIMHQDWLNGKEFKCRVNSAAFPAPIEKTISKTKGRPKAPQVYTIPPPKEQMAKDKVSLTCMITDFFPEDITVEWQWNGQPAENYKNTQPIMDTDGSYFVYSKLNVQKSNWEAGNTFTCSVLHEGLHNHHTEKSLSHSPGK
light: QIVLTQSPALMSASPGEKVTMTCSASSSVSYMYWYQQKPRSSPKPWIYLTSNLASGVPARFSGSGSGTSYSLTISSMEAEDAATYYCQQWSSNPLTFGAGTKLELKRADAAPTVSIFPPSSEQLTSGGASVVCFLNNFYPKDINVKWKIDGSERQNGVLNSWTDQDSKDSTYSMSSTLTLTKDEYERHNSYTCEATHKTSTSPIVKSFNRNEC
In turn, B4 displayed an FDCP Proliferation IC50, FGFR3 IIIc in assay [1] of 0.5 nM. The molecule also came in with an FDCP Proliferation IC50, FGFR3 IIIc G380R in assay [4] of 11.7 nM. Besides, the FDCP Proliferation IC50, FGFR3 IIIb in assay [3] was 0.63 nM.

B5: anti-FGFR3 monoclonal antibody 27H2 (antibody, mouse IgG1, kappa)
heavy: EIQLQQSGPELVKPGASVKVSCKASGYAFTSYNMYWVKQSHGKSLEWIGYIDPYNGGTRYNQKFKGKATMTVDKSSSTAYMHLNSLTSEDSAVYYCAREGGNYEAWFAYWGQGTLVTVSAAKTTPPSVYPLAPGSAAQTNSMVTLGCLVKGYFPEPVTVTWNSGSLSSGVHTFPAVLQSDLYTLSSSVTVPSSTWPSETVTCNVAHPASSTKVDKKIVPRDCGCKPCICTVPEVSSVFIFPPKPKDVLTITLTPKVTCVVVDISKDDPEVQFSWFVDDVEVHTAQTQPREEQFNSTFRSVSELPIMHQDWLNGKEFKCRVNSAAFPAPIEKTISKTKGRPKAPQVYTIPPPKEQMAKDKVSLTCMITDFFPEDITVEWQWNGQPAENYKNTQPIMDTDGSYFVYSKLNVQKSNWEAGNTFTCSVLHEGLHNHHTEKSLSHSPGK
light: QIVLTQSPALMSASPGEKVTMTCSASSSVSYMYWYQQKPRSSPKPWIYLTSNLASGVPARFSGSGSGTSYSLTISSMEAEDAATYYCQQWSSNPLTFGAGTKLELKRADAAPTVSIFPPSSEQLTSGGASVVCFLNNFYPKDINVKWKIDGSERQNGVLNSWTDQDSKDSTYSMSSTLTLTKDEYERHNSYTCEATHKTSTSPIVKSFNRNEC
In turn, B5 had an FDCP Proliferation IC50, FGFR3 IIIc in assay [1] of 0.59 nM. Also, in assay [4], the FDCP Proliferation IC50, FGFR3 IIIc G380R stood at 8.8 nM. The same molecule gave an FDCP Proliferation IC50, FGFR3 IIIb in assay [3] of 0.56 nM.
